Assay results from paper PMC3135172 (Cell, 2011).
Where no end group is shown, it is not given here.

Molecular target: BPTF bromodomain (human)
Test: ITC

Kd: 69 ± 1 µM
Binder: GKGLGK(Ac)GGAKR (not fully specified) [H4K12ac peptide]
